US5846747A, “Method for detecting glucagon-like peptide-1 antagonists and agonists” (Novo Nordisk A/S, priority 1993, dated 1998)

Biological target: T1, rat GLP-1 receptor (Rattus norvegicus, UniProt P32301)
T1 construct: expressed in transfected cells; host or cells: COS cells
T1 sequence (P32301 22-463): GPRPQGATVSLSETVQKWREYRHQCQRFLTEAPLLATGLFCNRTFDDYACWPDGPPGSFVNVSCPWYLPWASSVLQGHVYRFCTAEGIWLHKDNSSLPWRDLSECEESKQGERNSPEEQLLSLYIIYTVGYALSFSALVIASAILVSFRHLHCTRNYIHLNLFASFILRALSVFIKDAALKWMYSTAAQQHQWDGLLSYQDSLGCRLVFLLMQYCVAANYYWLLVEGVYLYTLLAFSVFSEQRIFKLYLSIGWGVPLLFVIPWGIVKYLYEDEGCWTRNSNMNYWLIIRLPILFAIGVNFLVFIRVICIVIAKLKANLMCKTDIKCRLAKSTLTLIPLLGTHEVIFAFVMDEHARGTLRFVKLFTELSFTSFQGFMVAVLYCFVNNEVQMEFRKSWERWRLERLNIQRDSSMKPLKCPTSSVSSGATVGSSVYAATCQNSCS
Assay: Displacement of 125I-GLP-1 binding to COS cells transfected with the rat GLP-1 receptor cDNA
Conditions: 20 pM 125I-GLP-1, increasing concentrations of cold peptide

gastric inhibitory peptide [GIP]
displacement of GLP-1 binding (in words): did not displace binding

vasoactive intestinal peptide [VIP]
displacement of GLP-1 binding (in words): did not displace binding

secreting: peptide hormone of related structure (probably secretin)
displacement of GLP-1 binding (in words): did not displace binding
